Data set [1] addresses T1, RTEL1∆762 (human, UniProt Q9NZ71-6 762-1300).
T1 sequence: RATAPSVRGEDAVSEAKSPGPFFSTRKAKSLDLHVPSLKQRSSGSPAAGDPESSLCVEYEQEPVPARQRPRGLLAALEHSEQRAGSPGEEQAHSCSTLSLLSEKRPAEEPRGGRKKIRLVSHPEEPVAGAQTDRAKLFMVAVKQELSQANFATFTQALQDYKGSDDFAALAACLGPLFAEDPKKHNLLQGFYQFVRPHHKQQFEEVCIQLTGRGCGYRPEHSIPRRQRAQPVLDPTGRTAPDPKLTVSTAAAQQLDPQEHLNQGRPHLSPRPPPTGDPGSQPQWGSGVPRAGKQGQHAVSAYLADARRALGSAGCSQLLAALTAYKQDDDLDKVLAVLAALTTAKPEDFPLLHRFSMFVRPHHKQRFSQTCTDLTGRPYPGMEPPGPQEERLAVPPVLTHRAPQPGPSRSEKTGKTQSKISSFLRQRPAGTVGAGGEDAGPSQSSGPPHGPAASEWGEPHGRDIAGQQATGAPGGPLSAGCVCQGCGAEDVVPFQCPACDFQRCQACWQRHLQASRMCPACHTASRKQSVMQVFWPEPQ
The data set can be described thus: fluorescence anisotropy; RNA folded in 100 mM KCl; text: <10 nM, at detection limit; 20 mM Tris pH 7.5, 50 mM KCl, 0.5 mM TCEP, 0.5 mM MgCl2, 10% glycerol, 0.1% IGEPAL, room temperature 30 min; oligos refolded in 10 mM Tris pH 7.5, 100 mM KCl; EMSA legends give 150 or 300 mM KCl. The settings on record: protein: recombinant; tags: 6xHis; chain copies: 2; label: 5' fluorescein; G4. (Fluorescence polarisation rises when a labelled molecule tumbles more slowly, as on binding a larger partner.)

Another data set addresses T2, RTEL1∆1143 (human, UniProt Q9NZ71-6 1143-1300).
T2 sequence: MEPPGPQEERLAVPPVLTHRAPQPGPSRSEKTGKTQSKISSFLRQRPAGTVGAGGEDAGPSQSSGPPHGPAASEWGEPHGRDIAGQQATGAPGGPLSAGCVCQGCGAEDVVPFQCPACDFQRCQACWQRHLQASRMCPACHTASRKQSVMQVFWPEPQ
The data set can be described thus: EMSA; negligible at 5 uM protein; 150 mM KCl; 20 mM Tris pH 7.5, 50 mM KCl, 0.5 mM TCEP, 0.5 mM MgCl2, 10% glycerol, 0.1% IGEPAL, room temperature 30 min; oligos refolded in 10 mM Tris pH 7.5, 100 mM KCl; EMSA legends give 150 or 300 mM KCl. The conditions noted are these: protein: recombinant; tags: 6xHis; label: 5' fluorescein; G4. On the technique in general: Mobility shift assays separate free from complexed probe on a gel.

Data set [2] concerns the target T1, RTEL1∆762. The data set can be described thus: fluorescence anisotropy; 20 mM Tris pH 7.5, 50 mM KCl, 0.5 mM TCEP, 0.5 mM MgCl2, 10% glycerol, 0.1% IGEPAL, room temperature 30 min; oligos refolded in 10 mM Tris pH 7.5, 100 mM KCl; EMSA legends give 150 or 300 mM KCl. The settings on record: protein: recombinant, tags: 6xHis, chain copies: 2, label: 5' fluorescein.

In data set [3] the target is T3, RTEL1∆762-1097 (human, UniProt Q9NZ71-6 762-1097).
T3 sequence: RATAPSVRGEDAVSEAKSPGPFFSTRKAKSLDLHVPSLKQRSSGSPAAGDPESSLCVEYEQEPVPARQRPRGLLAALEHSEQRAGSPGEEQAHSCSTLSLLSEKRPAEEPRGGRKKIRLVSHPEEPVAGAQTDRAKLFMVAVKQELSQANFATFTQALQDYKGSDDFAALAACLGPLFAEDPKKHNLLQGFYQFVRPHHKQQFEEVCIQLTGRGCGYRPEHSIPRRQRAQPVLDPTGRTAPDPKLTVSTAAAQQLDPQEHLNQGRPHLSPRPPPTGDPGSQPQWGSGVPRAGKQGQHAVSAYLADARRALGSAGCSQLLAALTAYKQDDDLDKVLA
The data set is described as follows: competition (fluorescence anisotropy); vs FAM-TERRA-MUT, 200 nM; 20 mM Tris pH 7.5, 50 mM KCl, 0.5 mM TCEP, 0.5 mM MgCl2, 10% glycerol, 0.1% IGEPAL, room temperature 30 min; oligos refolded in 10 mM Tris pH 7.5, 100 mM KCl; EMSA legends give 150 or 300 mM KCl. The conditions noted are these: protein: recombinant, tags: 6xHis.

Data set [4] has as its target T1, RTEL1∆762. The data set is described as above. The settings on record: protein: recombinant, tags: 6xHis, chain copies: 2.
Data set [5] deals with T4, RTEL1∆762R1264H (human, UniProt Q9NZ71-6 762-1300, R1264H).
T4 sequence: T1 sequence with R503H
The description is as above. The conditions noted are these: protein: recombinant, tags: 6xHis.

Data set [6] concerns the target T3, RTEL1∆762-1097. The data set is described as follows: competition (fluorescence anisotropy); vs FAM-TERRA-MUT, 1 uM; 20 mM Tris pH 7.5, 50 mM KCl, 0.5 mM TCEP, 0.5 mM MgCl2, 10% glycerol, 0.1% IGEPAL, room temperature 30 min; oligos refolded in 10 mM Tris pH 7.5, 100 mM KCl; EMSA legends give 150 or 300 mM KCl. The settings on record: protein: recombinant, tags: 6xHis.

Data set [7] has as its target T1, RTEL1∆762. Described as above. The conditions noted are these: protein: recombinant, tags: 6xHis, chain copies: 2.
Data set [8] addresses T4, RTEL1∆762R1264H. The data set is described as above. The settings on record: protein: recombinant, tags: 6xHis.
Data set [9] has as its target T1, RTEL1∆762. The data set is described as follows: fluorescence anisotropy; RNA folded in 100 mM KCl; 20 mM Tris pH 7.5, 50 mM KCl, 0.5 mM TCEP, 0.5 mM MgCl2, 10% glycerol, 0.1% IGEPAL, room temperature 30 min; oligos refolded in 10 mM Tris pH 7.5, 100 mM KCl; EMSA legends give 150 or 300 mM KCl. The conditions noted are these: protein: recombinant; tags: 6xHis; chain copies: 2; label: 5' fluorescein; no G4.

Data set [10] concerns the target T1, RTEL1∆762. The data set is described as follows: fluorescence anisotropy; RNA folded in 0 mM KCl; 20 mM Tris pH 7.5, 50 mM KCl, 0.5 mM TCEP, 0.5 mM MgCl2, 10% glycerol, 0.1% IGEPAL, room temperature 30 min; oligos refolded in 10 mM Tris pH 7.5, 100 mM KCl; EMSA legends give 150 or 300 mM KCl. The conditions noted are these: protein: recombinant; tags: 6xHis; chain copies: 2; label: 5' fluorescein; no G4 (folded without KCl).

Data set [11] concerns the molecule itself. The data set is described as follows: SEC-MALS; 200-300 µg protein on Superdex 200 10/300 GL, 0.3 ml per minute, 50 mM Hepes pH 7.5, 1 mM TCEP, 150 or 300 mM NaCl; dimer to monomers.

Substitutions are numbered along the chain they refer to.

Turning to UUAGGGUUAGGGUUAGGGUUAGGG (structured_RNA) [TERRA (FAM), folded in KCl], the equilibrium dissociation constant (Kd) in the data set with RTEL1∆762 [1] came to 1.3 ± 3.6 nM. In the data set with RTEL1∆1143, the binding result is reported as “no binding”.
Take AAAAAAAAAAAAAAAAAAAAAAAA (ssRNA) [Poly A 24mer]: the Kd in the data set with RTEL1∆762 [2] came to 498 ± 47.8 nM.
Regarding UUAGGGUUAGGGUUAGGGUUAGGG (structured_RNA) [TERRA competitor], the inhibition constant (Ki) came out at 245 ± 35 nM in the data set with RTEL1∆762-1097 [3] (G4); 17 ± 3 nM in the data set with RTEL1∆762 [4] (G4); 30 ± 7 nM in the data set with RTEL1∆762R1264H [5] (G4); 978 ± 84 nM with RTEL1∆762-1097 [6] (G4); 29 ± 4 nM with RTEL1∆762 [7] (G4); 107 ± 14 nM with RTEL1∆762R1264H [8] (G4).
Consider GGTTAGGGTTAGGGTTAGGGTTAGGGTTAG (structured_DNA) [hTelo], for which the Ki with RTEL1∆762-1097 [3] (G4) worked out at 276 ± 39 nM; with RTEL1∆762 [4] (G4), 29 ± 4 nM; with RTEL1∆762R1264H [5] (G4) it was 47 ± 9 nM; in the data set with RTEL1∆762-1097 [6] (G4), 1720 ± 302 nM; with RTEL1∆762 [7] (G4), 74 ± 12 nM; in the data set with RTEL1∆762R1264H [8] (G4) it was 212 ± 17 nM.
UUACCGUUACCGUUACCGUUACCG (ssRNA) [TERRA-MUT (FAM)]: in the data set with RTEL1∆762 [9], the equilibrium dissociation constant (Kd) is 108 ± 21.6 nM.
In the case of UUAGGGUUAGGGUUAGGGUUAGGG (ssRNA) [TERRA (FAM), not folded (0 mM KCl)], the Kd with RTEL1∆762 [10] was 37.1 ± 9.6 nM.
AUUAUUAUUAUUAUUAUUAUUAUU (ssRNA) [AU-rich 24mer]: the Kd in the data set with RTEL1∆762 [2] (unstructured) is 42 ± 6.1 nM.

B1: RTEL1^∆762 (human RTEL1 residues 762-1300, lacks the helicase domain) (domain or fragment, UniProt Q9NZ71-6 762-1300, looked up)
chain: T1 sequence
notes: residue numbers run to 1300; Cloned between EcoRI and XhoI of pET28; expected monomer mass printed as 62 kDa; source: E. coli BL21, purified (His-trap, Hi-Trap Q, Superdex 200)
Consider B1, for which, in data set [11], the “stoichiometry N” value turned out to be 2.
Turning to GGTTACCGTTACCGTTACCGTTACCGTTAG (ssDNA) [hTelo-MUT], the Ki with RTEL1∆762-1097 [3] (no G4) came to 826 ± 134 nM; in the data set with RTEL1∆762 [4] (no G4), 93 ± 11 nM; in the data set with RTEL1∆762R1264H [5] (no G4), 309 ± 68 nM; in the data set with RTEL1∆762-1097 [6] (no G4), 12600 ± 8470 nM; with RTEL1∆762 [7] (no G4) it was 420 ± 140 nM; in the data set with RTEL1∆762R1264H [8] (no G4) it was 1750 ± 520 nM.

The term Kd denotes the constant that tells how readily two partners part at equilibrium. The term Ki denotes a dissociation constant, usually derived from enzyme kinetics or from competition with a known ligand. What is called stoichiometry N is a count of units in the complex or per binding partner.

The values above are taken from paper PMC8140157, “RTEL1 influences the abundance and localization of TERRA RNA” (Nature Communications, 2020).
